Like-named read-outs stand apart in the source and are kept apart here.
Target: T1, menin^T349M (Homo sapiens, UniProt O00255, T344M)
T1 construct: The gene encoding full-length human menin was cloned into a pET32a expression vector; thioredoxin-His6 (cleaved yes); made in house; host or cells: E. coli BL21(DE3)
T1 sequence (O00255 1-610 T344M): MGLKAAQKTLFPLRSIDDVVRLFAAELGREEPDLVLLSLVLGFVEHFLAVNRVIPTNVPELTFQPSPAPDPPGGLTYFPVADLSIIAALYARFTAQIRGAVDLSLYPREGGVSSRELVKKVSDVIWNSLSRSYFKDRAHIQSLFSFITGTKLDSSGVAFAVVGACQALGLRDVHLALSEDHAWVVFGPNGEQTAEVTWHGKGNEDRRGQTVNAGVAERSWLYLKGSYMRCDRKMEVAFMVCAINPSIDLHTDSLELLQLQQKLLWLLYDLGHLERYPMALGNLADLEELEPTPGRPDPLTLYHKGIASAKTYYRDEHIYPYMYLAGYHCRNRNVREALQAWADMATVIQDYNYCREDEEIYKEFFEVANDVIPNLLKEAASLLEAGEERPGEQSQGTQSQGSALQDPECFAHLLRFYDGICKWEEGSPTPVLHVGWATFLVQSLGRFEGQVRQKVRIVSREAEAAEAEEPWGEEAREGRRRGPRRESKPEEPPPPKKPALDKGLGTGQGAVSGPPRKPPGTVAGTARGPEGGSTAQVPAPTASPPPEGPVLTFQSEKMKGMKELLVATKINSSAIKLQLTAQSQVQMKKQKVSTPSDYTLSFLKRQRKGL
Assay: ITC binding of MLL1 fragments to menin^T349M
Description: Menin and MLL1 fragments were dialyzed at 4 °C against a 50 mM sodium phosphate pH 7.5, 50 mM NaCl, 1 mM TCEP buffer, and degassed prior to measurement. The titrations were performed using the VP-ITC system (MicroCal) at 25 °C. The calorimetric cell, which contained menin (concentrations in the 5–10 μM range), was titrated with the MLL1^160 and MLL1^4-15 derived peptides (concentration range 40–100 μM) injected in 10-μL aliquots. Data was analyzed using Origin 7.0 (OriginLab) to obtain Kd, stoichiometry, entropy, and enthalpy ([2]). Experiments with WT, M327I, T349M, and G331R menin and MLL1^160 or MLL1^4-15 were run in duplicate. Experiments with G331D menin and MLL1^160 were run in duplicate while experiments with G331D and MLL1^4-15 were run in quadruplicate.

Kd (ITC summary Fig. 1B, values marked *, n = 2, read-out: T349M Kd (nM), ITC): 2.6 ± 0.7 nM
Kd (ITC, representative binding isotherm Fig. 1A, 25 °C, read-out: Kd): 2.6 ± 0.7 nM
B1: MLL1^160: N-terminal 160 amino acids of human MLL1, Cys2 mutated to alanine, recombinant (protein)
chain: MAHSARWRFPARPGTTGGGGGGGRRGLGGAPRQRVPALLLPPGPPVGGGGPGAPPSPPAVAAAAAAAGSSGAGVPGGAAAASAASSSSASSSSSSSSSASSGPALLRVGPGFDAALQVSAAIGTNLRRFRAVFGESGGGGGSGEDEQFLGFGSDEEVRVR
modifications: The printed 'Cys2' is the single N-terminal cysteine, Cys5 in the entry (peptide S4-A5-R6); Trx-His6 tag cleaved

Source: publication PMC11490872, “Drug-resistant menin variants retain high binding affinity and interactions with MLL1” (The Journal of Biological Chemistry, 2024)
